# Measured values taken from patent US20170360770A1.
# Columns and labels:
# [1] = target: human leukocyte antigen-DR (HLA-DR), on human cancer cell lines (human); experiment: cell-based ELISA on HLA-DR positive human melanoma cell line (printed A-374)
# [2] = target: human leukocyte antigen-DR (HLA-DR), on human cancer cell lines (human); experiment: cell-based or functional assay
# [3] = target: human leukocyte antigen-DR (HLA-DR), on human cancer cell lines (human); experiment: chemiluminescent cell-binding assay (LUMIGLO), 2 µg/mL antibody on A-375 cells; reference: humanized anti-CD22 control antibody
# [4] = target: human leukocyte antigen-DR (HLA-DR), on human cancer cell lines (human); experiment: FACS, AlexaFluor-647-labeled IMMU-114 on MN-60 ALL cells
# [5] = target: human leukocyte antigen-DR (HLA-DR), on human cancer cell lines (human); experiment: chemiluminescent cell-binding assay on A-375 human melanoma cells
# [6] = target: human leukocyte antigen-DR (HLA-DR), on human cancer cell lines (human); experiment: FACS, AlexaFluor-647-labeled IMMU-114 on MOLM-14 AML cells
# [7] = target: human leukocyte antigen-DR (HLA-DR), on human cancer cell lines (human); experiment: chemiluminescent cell-binding assay on SK-MEL-5 human melanoma cells
# [8] = target: human leukocyte antigen-DR (HLA-DR), on human cancer cell lines (human); experiment: chemiluminescent cell-binding assay on SK-MEL-2 human melanoma cells
# [9] = target: human leukocyte antigen-DR (HLA-DR), on human cancer cell lines (human); experiment: FACS, AlexaFluor-647-labeled IMMU-114 on CAG MM cells
# [10] = target: human leukocyte antigen-DR (HLA-DR), on human cancer cell lines (human); experiment: chemiluminescent cell-binding assay (LUMIGLO), 2 µg/mL antibody on A-375 human melanoma cells, at both 4° C. and RT
# [11] = target: human leukocyte antigen-DR (HLA-DR), on human cancer cell lines (human); experiment: FACS, AlexaFluor-647-labeled IMMU-114 on JVM-3 CLL cells
# [12] = target: human leukocyte antigen-DR (HLA-DR), on human cancer cell lines (human); experiment: chemiluminescent cell-binding assay on SK-MEL-28 human melanoma cells
molecule,measurement,setting,value
"IMMU-140 (hL243-CL2A-SN-38), anti-HLA-DR antibody drug conjugate",Kd,[1],0.77 nM
same,"IC50 (nM), in vitro cytotoxicity, CAG (MM) cells, MTS 96 h (nM (SN-38 equivalents))",[2],7.05
same,"IC50 (nM), in vitro cytotoxicity, JVM-3 (CLL) cells, MTS 96 h (nM (SN-38 equivalents))",[2],0.77
same,"IC50 (nM), in vitro cytotoxicity, MN-60 (ALL) cells, MTS 96 h (nM (SN-38 equivalents))",[2],1.29
same,"IC50 (nM), in vitro cytotoxicity, MOLM-14 (AML) cells, MTS 96 h (nM (SN-38 equivalents))",[2],1.21
"IMMU-114 (hL243), humanized anti-HLA-DR IgG4 monoclonal antibody (antibody, from a related filing, V domains shown) VH: QVQLQQSGSELKKPGASVKVSCKASGFTFTNYGMNWVKQAPGQGLKWMGWINTYTREPTYADDFKGRFAFSLDTSVSTAYLQISSLKADDTAVYFCARDITAVVPTGFDYWGQGSLVTVSS VL: DIQLTQSPSSLSASVGDRVTITCRASENIYSNLAWYRQKPGKAPKLLVFAASNLADGVPSRFSGSGSGTDYTFTISSLQPEDIATYYCQHFWTTPWAFGGGTKLQIKR",fold mean luminescence over non-specific control,[3],> 25 fold
same,Mean fluorescence intensity (MFI),[4],65800 MFI
same,Kd,[1],0.65 nM
same,fold above background,[5],48 fold
same,Mean fluorescence intensity (MFI),[6],5750 MFI
same,fold above background,[7],12 fold
same,fold above background,[8],2 fold
same,Mean fluorescence intensity (MFI),[9],80700 MFI
same,fold mean luminescence over background,[10],> 48 fold
same,"IC50 (nM), in vitro cytotoxicity, CAG (MM) cells, MTS 96 h",[2],> 40 nM
same,"IC50 (nM), in vitro cytotoxicity, JVM-3 (CLL) cells, MTS 96 h",[2],1.52 nM
same,"IC50 (nM), in vitro cytotoxicity, MN-60 (ALL) cells, MTS 96 h",[2],> 40 nM
same,"IC50 (nM), in vitro cytotoxicity, MOLM-14 (AML) cells, MTS 96 h",[2],> 40 nM
same,"Maximum % Inhibition at 40 nM, CAG (MM) cells",[2],28%
same,"Maximum % Inhibition at 40 nM, JVM-3 (CLL) cells",[2],65%
same,"Maximum % Inhibition at 40 nM, MN-60 (ALL) cells",[2],37%
same,"Maximum % Inhibition at 40 nM, MOLM-14 (AML) cells",[2],11%
same,Mean fluorescence intensity (MFI),[11],78700 MFI
same,fold above background,[12],25 fold
